We go through 66 substances from patent US10117916B2, “Peptides and combination of peptides for use in immunotherapy against CLL and other cancers” (immatics biotechnologies GmbH, priority 2015, dated 2018).

The target in the assay is HLA-A*02:01 (Homo sapiens, UniProt P04439, D140Y/D185E/D98H/E176V/E277Q/G131W/G231S/I119V/I121R/I166T/I218V/L300P/L318F/N151K/N90K/P208A/P217A/Q86G/Q94H/R138H/R169H/T345S). Kind of assay: MHC binding assay: UV-ligand exchange with β2m ELISA (peptide exchange yield). Conditions: MHC class I binding score; binding to HLA-A*02:01 ranged by peptide exchange yield (UV-ligand exchange, β2m ELISA). The source says: Candidate peptides for T cell based therapies according to the present invention were further tested for their MHC binding capacity (affinity). The individual peptide-MHC complexes were produced by UV-ligand exchange, where a UV-sensitive peptide is cleaved upon UV-irradiation, and exchanged with the peptide of interest as analyzed. Only peptide candidates that can effectively bind and stabilize the peptide-receptive MHC molecules prevent dissociation of the MHC complexes. To determine the yield of the exchange reaction, an ELISA was performed based on the detection of the light chain (β2m) of stabilized MHC complexes. The assay was performed as generally described in Rodenko et al. (Rodenko et al., 2006).
96 well MAXISorp plates (NUNC) were coated over night with 2 ug/ml streptavidin in PBS at room temperature, washed 4× and blocked for 1 h at 37° C. in 2% BSA containing blocking buffer. Refolded HLA-A*02:01/MLA-001 monomers served as standards, covering the range of 15-500 ng/ml. Peptide-MHC monomers of the UV-exchange reaction were diluted 100 fold in blocking buffer. Samples were incubated for 1 h at 37° C., washed four times, incubated with 2 ug/ml HRP conjugated anti-β2m for 1 h at 37° C., washed again and detected with TMB solution that is stopped with […]. Absorption was measured at 450 nm. Candidate peptides that show a high exchange yield (preferably higher than 50%, most preferred higher than 75%) are generally preferred for a generation and production of antibodies or fragments thereof, and/or T cell receptors or fragments thereof, as they show sufficient avidity to the MHC molecules and prevent dissociation of the MHC complexes.
Background: In an ELISA, binding on a coated surface is turned into a signal by an enzyme label.
Take “3 (VIAELPPKV; listed as Homo sapiens) [compound 3]”: the “Peptide Exchange” value is given as “″++″ (≥20% = ++)”.

Consider “4 (VIAELPPKVSV; listed as Homo sapiens) [compound 4]”, for which the “Peptide Exchange” value is “″+++″ (≥50 = +++)”.

For the substance “6 (ALDTLEDDMTI; listed as Homo sapiens) [compound 6]”, the “Peptide Exchange” value is on record as “″+++″ (≥50 = +++)”.

As to “7 (ALLERTGYTL; listed as Homo sapiens) [compound 7]”, the “Peptide Exchange” value is “″+++″ (≥50 = +++)”.

With “8 (ALAASALPALV; listed as Homo sapiens) [compound 8]”, the “Peptide Exchange” value is “″+++″ (≥50 = +++)”.

As for “9 (ALCDTLITV; listed as Homo sapiens) [compound 9]”, the “Peptide Exchange” value was “″+++″ (≥50 = +++)”.

In the case of “10 (FVYGESVEL; listed as Homo sapiens) [compound 10]”, the “Peptide Exchange” value was “″+++″ (≥50 = +++)”.

Take “11 (ALFTFSPLTV; listed as Homo sapiens) [compound 11]”: the “Peptide Exchange” value was “″+++″ (≥50 = +++)”.

On to “12 (ALGEDEITL; listed as Homo sapiens) [compound 12]”, for which the “Peptide Exchange” value is “″+++″ (≥50 = +++)”.

For “13 (VVDGMPPGV; listed as Homo sapiens) [compound 13]”, the “Peptide Exchange” value is “″+++″ (≥50 = +++)”.

In the case of “14 (ALLRLLPGL; listed as Homo sapiens) [compound 14]”, the “Peptide Exchange” value is “″+++″ (≥50 = +++)”.

On to “15 (ALPEVSVEA; listed as Homo sapiens) [compound 15]”, for which the “Peptide Exchange” value is “″+++″ (≥50 = +++)”.

As for “16 (ALPGGAAVAAV; listed as Homo sapiens) [compound 16]”, the “Peptide Exchange” value is “″++++″ (≥75% = ++++)”.

On to “18 (LLGEFSIKM; listed as Homo sapiens) [compound 18]”, for which the “Peptide Exchange” value is recorded as “″+++″ (≥50 = +++)”.

In the case of “19 (QVMEKLAAV; listed as Homo sapiens) [compound 19]”, the “Peptide Exchange” value is given as “″+++″ (≥50 = +++)”.

Take “20 (ALVDPGPDFVV; listed as Homo sapiens) [compound 20]”: the “Peptide Exchange” value is recorded as “″+++″ (≥50 = +++)”.

As to “21 (ALWAGLLTL; listed as Homo sapiens) [compound 21]”, the “Peptide Exchange” value is “″+++″ (≥50 = +++)”.

As to “22 (ALWDPVIEL; listed as Homo sapiens) [compound 22]”, the “Peptide Exchange” value was “″+++″ (≥50 = +++)”.

As for “23 (ALYLTEVFL; listed as Homo sapiens) [compound 23]”, the “Peptide Exchange” value was “″++++″ (≥75% = ++++)”.

Consider “24 (AMAGDVVYA; listed as Homo sapiens) [compound 24]”, for which the “Peptide Exchange” value was “″+++″ (≥50 = +++)”.

For “25 (ATYSGLESQSV; listed as Homo sapiens) [compound 25]”, the “Peptide Exchange” value is given as “″++″ (≥20% = ++)”.

Turning to “27 (AVLGLVWLL; listed as Homo sapiens) [compound 27]”, the “Peptide Exchange” value is “″+++″ (≥50 = +++)”.

For “28 (AVLHLLLSV; listed as Homo sapiens) [compound 28]”, the “Peptide Exchange” value is “″++″ (≥20% = ++)”.

As for “29 (AVLQAVTAV; listed as Homo sapiens) [compound 29]”, the “Peptide Exchange” value is “″+++″ (≥50 = +++)”.

Regarding “30 (ELLEGSEIYL; listed as Homo sapiens) [compound 30]”, the “Peptide Exchange” value is “″+++″ (≥50 = +++)”.

In the case of “31 (ELMHGVAGV; listed as Homo sapiens) [compound 31]”, the “Peptide Exchange” value is “″+++″ (≥50 = +++)”.

For “34 (YLPYIFPNI; listed as Homo sapiens) [compound 34]”, the “Peptide Exchange” value is on record as “″+++″ (≥50 = +++)”.

On to “35 (FILPSSLYL; listed as Homo sapiens) [compound 35]”, for which the “Peptide Exchange” value is “″+++″ (≥50 = +++)”.

Regarding “36 (FILTHVDQL; listed as Homo sapiens) [compound 36]”, the “Peptide Exchange” value was “″++++″ (≥75% = ++++)”.

For “37 (FIMEGGAMVL; listed as Homo sapiens) [compound 37]”, the “Peptide Exchange” value is reported as “″++++″ (≥75% = ++++)”.

Regarding “38 (FIMEGGAMV; listed as Homo sapiens) [compound 38]”, the “Peptide Exchange” value is “″+++″ (≥50 = +++)”.

For “39 (FLDALLTDV; listed as Homo sapiens) [compound 39]”, the “Peptide Exchange” value was “″+++″ (≥50 = +++)”.

On to “40 (FLDEDDMSL; listed as Homo sapiens) [compound 40]”, for which the “Peptide Exchange” value is “″++″ (≥20% = ++)”.

Turning to “41 (FLDPSLDPLL; listed as Homo sapiens) [compound 41]”, the “Peptide Exchange” value is “″+++″ (≥50 = +++)”.

For the substance “42 (FLEEGGVVTV; listed as Homo sapiens) [compound 42]”, the “Peptide Exchange” value was “″+++″ (≥50 = +++)”.

For the substance “43 (FLLGPEALSFA; listed as Homo sapiens) [compound 43]”, the “Peptide Exchange” value is on record as “″++++″ (≥75% = ++++)”.

With “44 (FLLSINDFL; listed as Homo sapiens) [compound 44]”, the “Peptide Exchange” value is reported as “″+++″ (≥50 = +++)”.

Turning to “45 (FLPELPADLEA; listed as Homo sapiens) [compound 45]”, the “Peptide Exchange” value was “″+++″ (≥50 = +++)”.

Consider “46 (YIIDSAQAV; listed as Homo sapiens) [compound 46]”, for which the “Peptide Exchange” value was “″+++″ (≥50 = +++)”.

Turning to “47 (FLSDQPEPYL; listed as Homo sapiens) [compound 47]”, the “Peptide Exchange” value is listed as “″++″ (≥20% = ++)”.

“48 (FLSPQQPPLL; listed as Homo sapiens) [compound 48]”: the “Peptide Exchange” value was “″+++″ (≥50 = +++)”.

Regarding “50 (FLFEPVVKAFL; listed as Homo sapiens) [compound 50]”, the “Peptide Exchange” value was “″+++″ (≥50 = +++)”.

For the substance “51 (FLVEAPHDWDL; listed as Homo sapiens) [compound 51]”, the “Peptide Exchange” value is on record as “″++++″ (≥75% = ++++)”.

Regarding “52 (FLVETGFLHV; listed as Homo sapiens) [compound 52]”, the “Peptide Exchange” value is on record as “″++++″ (≥75% = ++++)”.

Turning to “53 (FLWQHVELVL; listed as Homo sapiens) [compound 53]”, the “Peptide Exchange” value is on record as “″+++″ (≥50 = +++)”.

With “55 (FMEPTLLML; listed as Homo sapiens) [compound 55]”, the “Peptide Exchange” value was “″+++″ (≥50 = +++)”.

Regarding “58 (YIQQGIFSV; listed as Homo sapiens) [compound 58]”, the “Peptide Exchange” value is given as “″+++″ (≥50 = +++)”.

For “59 (FVFGDENGTVSL; listed as Homo sapiens) [compound 59]”, the “Peptide Exchange” value was “″+++″ (≥50 = +++)”.

As for “60 (FVLDHEDGLNL; listed as Homo sapiens) [compound 60]”, the “Peptide Exchange” value was “″+++″ (≥50 = +++)”.

“61 (FVYFIVREV; listed as Homo sapiens) [compound 61]”: the “Peptide Exchange” value is “″+++″ (≥50 = +++)”.

“62 (GIIDGSPRL; listed as Homo sapiens) [compound 62]”: the “Peptide Exchange” value is “″+++″ (≥50 = +++)”.

“63 (SLAHVAGCEL; listed as Homo sapiens) [compound 63]”: the “Peptide Exchange” value is on record as “″+++″ (≥50 = +++)”.

For the substance “64 (KLLESVASA; listed as Homo sapiens) [compound 64]”, the “Peptide Exchange” value is given as “″+++″ (≥50 = +++)”.

Consider “65 (GLDDMKANL; listed as Homo sapiens) [compound 65]”, for which the “Peptide Exchange” value is reported as “″++″ (≥20% = ++)”.

For “66 (SLAGGLDDMKA; listed as Homo sapiens) [compound 66]”, the “Peptide Exchange” value is “″+++″ (≥50 = +++)”.

For the substance “67 (GLDDVTVEV; listed as Homo sapiens) [compound 67]”, the “Peptide Exchange” value was “″++″ (≥20% = ++)”.

Take “68 (GLDQQFAGLDL; listed as Homo sapiens) [compound 68]”: the “Peptide Exchange” value is listed as “″+″ (≥10% = +)”.

As for “70 (FVPDTPVGV; listed as Homo sapiens) [compound 70]”, the “Peptide Exchange” value is recorded as “″+++″ (≥50 = +++)”.

As for “71 (GLKHDIARV; listed as Homo sapiens) [compound 71]”, the “Peptide Exchange” value is listed as “″+++″ (≥50 = +++)”.

Regarding “72 (GLLDAGKMYV; listed as Homo sapiens) [compound 72]”, the “Peptide Exchange” value was “″+++″ (≥50 = +++)”.

Turning to “73 (GLLEVISALQL; listed as Homo sapiens) [compound 73]”, the “Peptide Exchange” value is “″+++″ (≥50 = +++)”.

In the case of “74 (GLLRASFLL; listed as Homo sapiens) [compound 74]”, the “Peptide Exchange” value is listed as “″++″ (≥20% = ++)”.

For “75 (GLSIFAQDLRL; listed as Homo sapiens) [compound 75]”, the “Peptide Exchange” value is listed as “″++″ (≥20% = ++)”.

For “76 (GLLRIIPYL; listed as Homo sapiens) [compound 76]”, the “Peptide Exchange” value is reported as “″+++″ (≥50 = +++)”.

“78 (GLPSFLTEV; listed as Homo sapiens) [compound 78]”: the “Peptide Exchange” value is reported as “″+++″ (≥50 = +++)”.

Regarding “79 (GLQAKIQEA; listed as Homo sapiens) [compound 79]”, the “Peptide Exchange” value is on record as “″+++″ (≥50 = +++)”.
